# Numbering of substitutions follows the chain as printed. In names and notes the source's numbering stands.
# B1: BTN2A1 (309–527) wild type (domain or fragment, human, UniProt Q7KYR7 309-527, looked up)
# chain: QVKEKLQEELRWRRTFLHAVDVVLDPDTAHPDLFLSEDRRSVRRCPFRHLGESVPDNPERFDSQPCVLGRESFASGKHYWEVEVENVIEWTVGVCRDSVERKGEVLLIPQNGFWTLEMHKGQYRAVSSPDRILPLKESLCRVGVFLDYEAGDVSFYNMRDRSHIYTCPRSAFSVPVRPFFRLGCEDSPIFICPALTGANGVTVPEEGLTLHRVGTHQSL
# B2: BTN2A1 (271–527) wild type (domain or fragment, human, UniProt Q7KYR7 271-527, looked up)
# chain: KLQKEKKILSGEKEFERETREIALKELEKERVQKEEELQVKEKLQEELRWRRTFLHAVDVVLDPDTAHPDLFLSEDRRSVRRCPFRHLGESVPDNPERFDSQPCVLGRESFASGKHYWEVEVENVIEWTVGVCRDSVERKGEVLLIPQNGFWTLEMHKGQYRAVSSPDRILPLKESLCRVGVFLDYEAGDVSFYNMRDRSHIYTCPRSAFSVPVRPFFRLGCEDSPIFICPALTGANGVTVPEEGLTLHRVGTHQSL
# B3: BTN2A1 (271–527) L318G (domain or fragment, human, UniProt Q7KYR7 271-527, looked up)
# chain: B2 chain with L48G
# B4: BTN2A1 (271–527) W320A (domain or fragment, human, UniProt Q7KYR7 271-527, looked up)
# chain: B2 chain with W50A
# B5: BTN2A1 (271–527) L318GW320A (domain or fragment, human, UniProt Q7KYR7 271-527, looked up)
# chain: B2 chain with L48G, W50A
# Target: the molecule itself
# Test: SEC
row,Protein,stoichiometry N
1,B1,2
2,B2,2
3,B3,2
4,B4,2
5,B5,2

# From PMC10330345 (Journal of immunology (Baltimore, Md. : 1950), 2023)
